B1: Anti-Human Oxyntomodulin C-Terminal Antibody (antibody, V domains shown)
VH: QVQVQQSGAELVMPGTSVKLSCKASGYNFTNYWLHWVKQRPGQGLEWIGELDPEYGFANYNQKFKGKATLTVDKSSSTAYMQLSSLTSEDSAVYYCSAGFMDYWGQGTSVTVSS
VL: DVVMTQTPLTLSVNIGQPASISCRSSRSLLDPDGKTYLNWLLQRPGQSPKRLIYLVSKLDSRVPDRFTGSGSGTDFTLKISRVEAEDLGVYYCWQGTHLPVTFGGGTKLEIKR
notes: In SPR it was captured as IgG by goat anti-mouse IgG; In the sandwich immunoassay it was biotin-labelled and held on streptavidin plates; also called capture antibody
B2: Anti-Human Oxyntomodulin N-Terminal Antibody (antibody, V domains shown)
VH: QIQLVQSGPELKKPGETVKISCKASGYTFTDYAFSWVKQAPGKGLKWMGWITTNTGEATYADDFKGRFAFSLETSASTAYLQISNLKNEDTATYFCARETEYGDSSWFGHWGQGTLVTVSA
VL: DIVLTQSPASLAVSLGQRATISCRASESVDGWGNSFMHWYQQKPGQPPKLLIYLATYRVAGIPARFSGSGSRTDFTLTINPVEADDVATYYCMQSSEDPYTFGGGTKLEIKR
notes: In SPR it was captured as IgG by goat anti-mouse IgG; In the sandwich immunoassay it was ruthenium-labelled; also called detection antibody

Molecular target: T1, human oxyntomodulin (53-89) (human)
T1 construct: also called synthetic human oxyntomodulin
T1 peptide: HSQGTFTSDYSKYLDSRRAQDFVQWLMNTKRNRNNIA
Test: SPR (Biacore T100), antibody captured by anti-mouse IgG, oxyntomodulin 1.1-90 nmol/L as analyte, 1:1 model
Method: Kinetic analysis and binding specificity of the N-Terminal Antibody and the C-Terminal Antibody are determined by surface plasmon resonance using Biacore T100 (GE Healthcare Life Sciences). Goat anti-mouse IgG antibody (Southern Biotech) is immobilized on a Series S CM5 sensor chip and used to capture approximately 1500 response units of anti-oxyntomodulin IgG. Binding to duplicate injections of various concentrations of human oxyntomodulin (SEQ ID NO: 25) (1.1 to 90 nmol/L) diluted in running buffer (HEPES buffered saline containing 3 mmol/L EDTA and 0.05% Tween) and 22.5 nmol/L of either human glicentin span (49-89) (SEQ ID NO: 29) or human glucagon (53-81) (SEQ ID NO: 30) peptides are measured with a flow rate of […]. Kinetic constants are determined using 1:1 binding model with the T100 Evaluation software.
Using Biacore analysis of the N-Terminal Antibody, the equilibrium dissociation constant is 1.5×10⁻¹⁰ mol/L (Table 2).

Row | Binder | Kd [nM] | koff [s⁻¹] | kon [M⁻¹ s⁻¹]
1 | B1 | 0.083 | 0.00086 | 1e+07
2 | B2 | 0.15 | 0.001 | 7.2e+06
